*1 amine or outer side, *2 acyl side, *3 side chain or, on linkers, in order; H or OH if unused. Bridges are numbered along the chain shown (N, C = ends). Where no end group is shown, it is not given here. C6F4(1,4-diyl) = Fc1c(F)c([*:2])c(F)c(F)c1[*:1]
B1: macrocyclic peptide MP7 (peptide)
peptide: CTLKCKLI-NH2
modifications: linker 1-5 via C6F4(1,4-diyl); N-terminus assumed
SMILES: CC[C@H](C)[C@H](NC(=O)[C@H](CC(C)C)NC(=O)[C@H](CCCCN)NC(=O)[C@@H]1CSc2c(F)c(F)c(c(F)c2F)SC[C@H](N)C(=O)N[C@@H]([C@@H](C)O)C(=O)N[C@@H](CC(C)C)C(=O)N[C@@H](CCCCN)C(=O)N1)C(N)=O

Key:
[1] = molecular target: T1, LDH1, tetramer of full length human LDHB subunits (human, UniProt P07195 2-334); experiment: cell-based or functional assay
T1 sequence (P07195 2-334 limits assumed): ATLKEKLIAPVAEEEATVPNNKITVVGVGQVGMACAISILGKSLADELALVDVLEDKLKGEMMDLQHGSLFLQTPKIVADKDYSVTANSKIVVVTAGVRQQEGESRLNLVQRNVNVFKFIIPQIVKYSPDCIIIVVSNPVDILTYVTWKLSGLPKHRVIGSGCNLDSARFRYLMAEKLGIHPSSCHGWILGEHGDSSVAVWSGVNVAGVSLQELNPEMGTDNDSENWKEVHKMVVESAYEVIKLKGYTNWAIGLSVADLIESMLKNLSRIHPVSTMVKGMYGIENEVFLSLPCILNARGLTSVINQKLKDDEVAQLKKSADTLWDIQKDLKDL

[2] = molecular target: T2, human LDH5, tetramer of human LDHA subunits (human, UniProt P00338 1-332); experiment: cell-based or functional assay
[3] = molecular target: T1, LDH1, tetramer of full length human …; experiment: MST on tetrameric LDH1, 10 to 20 s on time
[4] = molecular target: T2, human LDH5, tetramer of human LDHA …; experiment: MST on tetrameric LDH5, Kd from red-dye raw fluorescence
[5] = molecular target: T1, LDH1, tetramer of full length human …; experiment: biochemical and biophysical evaluation, not specified further

| Binder | EC50 of disruption of the tetrameric state (normalised 350 nm intrinsic fluorescence) [1] [µM] | ΔTm, thermal denaturation by nanoDSF, 400 µM MP7 [1] [° C.] | ΔTm, thermal denaturation by nanoDSF, 400 µM MP7 [2] [° C.] | Kd [3] [µM] | Kd [4] [µM] | binding result [5] |
| --- | --- | --- | --- | --- | --- | --- |
| B1 | 172 | -1.5 | -5 | ~380 | ~117 |  |
| ATLKEKLIAPVAEEEATVP-NH2 [LB19, LDHB 19 N-terminal amino acid peptide] |  |  |  |  |  | no binding |

Source: patent publication US20220289791A1 (UNIVERSIT CATHOLIQUE DE LOUVAIN, published 2022)
